# B1: CP199: Cas9 circular permutant, new start site aa 199 (SEQ ID NO:44); linker varies by experiment (protein)
# chain: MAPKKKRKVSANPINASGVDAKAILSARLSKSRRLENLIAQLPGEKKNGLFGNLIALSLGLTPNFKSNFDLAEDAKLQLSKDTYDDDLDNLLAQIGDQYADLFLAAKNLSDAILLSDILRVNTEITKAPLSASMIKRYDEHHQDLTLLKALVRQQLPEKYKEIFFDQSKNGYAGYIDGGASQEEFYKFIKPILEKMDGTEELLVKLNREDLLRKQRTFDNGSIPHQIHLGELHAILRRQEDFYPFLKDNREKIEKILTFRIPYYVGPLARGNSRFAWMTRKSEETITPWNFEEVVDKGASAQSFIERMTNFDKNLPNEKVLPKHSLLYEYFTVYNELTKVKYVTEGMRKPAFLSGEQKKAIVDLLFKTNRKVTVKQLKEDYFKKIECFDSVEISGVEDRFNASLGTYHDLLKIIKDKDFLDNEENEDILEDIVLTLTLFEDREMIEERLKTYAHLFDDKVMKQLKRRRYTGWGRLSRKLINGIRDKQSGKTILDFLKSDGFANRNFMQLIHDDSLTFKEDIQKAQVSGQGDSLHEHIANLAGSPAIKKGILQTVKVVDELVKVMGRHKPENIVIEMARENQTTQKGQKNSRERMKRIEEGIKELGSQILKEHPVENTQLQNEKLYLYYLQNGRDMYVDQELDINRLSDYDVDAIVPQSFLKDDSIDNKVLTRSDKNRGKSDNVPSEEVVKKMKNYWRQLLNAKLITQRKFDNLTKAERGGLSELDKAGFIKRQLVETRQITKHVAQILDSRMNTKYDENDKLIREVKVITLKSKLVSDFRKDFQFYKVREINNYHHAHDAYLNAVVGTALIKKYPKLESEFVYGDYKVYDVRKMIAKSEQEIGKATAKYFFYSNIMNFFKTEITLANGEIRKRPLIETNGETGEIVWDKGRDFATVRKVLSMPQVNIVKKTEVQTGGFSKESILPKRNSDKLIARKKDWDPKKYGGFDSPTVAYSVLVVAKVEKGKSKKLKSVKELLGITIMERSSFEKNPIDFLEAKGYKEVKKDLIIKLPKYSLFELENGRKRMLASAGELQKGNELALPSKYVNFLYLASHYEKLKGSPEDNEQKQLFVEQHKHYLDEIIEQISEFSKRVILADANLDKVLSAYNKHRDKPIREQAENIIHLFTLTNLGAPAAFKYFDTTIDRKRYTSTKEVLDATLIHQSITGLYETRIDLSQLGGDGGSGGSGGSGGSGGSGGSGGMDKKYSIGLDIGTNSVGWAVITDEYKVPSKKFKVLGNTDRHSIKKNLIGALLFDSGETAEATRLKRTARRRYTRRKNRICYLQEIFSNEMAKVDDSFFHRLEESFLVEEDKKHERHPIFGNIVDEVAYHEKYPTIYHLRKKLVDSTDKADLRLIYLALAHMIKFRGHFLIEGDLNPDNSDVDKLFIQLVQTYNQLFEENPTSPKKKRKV
# B2: ProCas9Flavi: ProCas9 with WNV linker sequence KQKKR/GGK, Flavivirus protease-sensitive caged Cas9 (SEQ ID NO:50) (protein)
# chain: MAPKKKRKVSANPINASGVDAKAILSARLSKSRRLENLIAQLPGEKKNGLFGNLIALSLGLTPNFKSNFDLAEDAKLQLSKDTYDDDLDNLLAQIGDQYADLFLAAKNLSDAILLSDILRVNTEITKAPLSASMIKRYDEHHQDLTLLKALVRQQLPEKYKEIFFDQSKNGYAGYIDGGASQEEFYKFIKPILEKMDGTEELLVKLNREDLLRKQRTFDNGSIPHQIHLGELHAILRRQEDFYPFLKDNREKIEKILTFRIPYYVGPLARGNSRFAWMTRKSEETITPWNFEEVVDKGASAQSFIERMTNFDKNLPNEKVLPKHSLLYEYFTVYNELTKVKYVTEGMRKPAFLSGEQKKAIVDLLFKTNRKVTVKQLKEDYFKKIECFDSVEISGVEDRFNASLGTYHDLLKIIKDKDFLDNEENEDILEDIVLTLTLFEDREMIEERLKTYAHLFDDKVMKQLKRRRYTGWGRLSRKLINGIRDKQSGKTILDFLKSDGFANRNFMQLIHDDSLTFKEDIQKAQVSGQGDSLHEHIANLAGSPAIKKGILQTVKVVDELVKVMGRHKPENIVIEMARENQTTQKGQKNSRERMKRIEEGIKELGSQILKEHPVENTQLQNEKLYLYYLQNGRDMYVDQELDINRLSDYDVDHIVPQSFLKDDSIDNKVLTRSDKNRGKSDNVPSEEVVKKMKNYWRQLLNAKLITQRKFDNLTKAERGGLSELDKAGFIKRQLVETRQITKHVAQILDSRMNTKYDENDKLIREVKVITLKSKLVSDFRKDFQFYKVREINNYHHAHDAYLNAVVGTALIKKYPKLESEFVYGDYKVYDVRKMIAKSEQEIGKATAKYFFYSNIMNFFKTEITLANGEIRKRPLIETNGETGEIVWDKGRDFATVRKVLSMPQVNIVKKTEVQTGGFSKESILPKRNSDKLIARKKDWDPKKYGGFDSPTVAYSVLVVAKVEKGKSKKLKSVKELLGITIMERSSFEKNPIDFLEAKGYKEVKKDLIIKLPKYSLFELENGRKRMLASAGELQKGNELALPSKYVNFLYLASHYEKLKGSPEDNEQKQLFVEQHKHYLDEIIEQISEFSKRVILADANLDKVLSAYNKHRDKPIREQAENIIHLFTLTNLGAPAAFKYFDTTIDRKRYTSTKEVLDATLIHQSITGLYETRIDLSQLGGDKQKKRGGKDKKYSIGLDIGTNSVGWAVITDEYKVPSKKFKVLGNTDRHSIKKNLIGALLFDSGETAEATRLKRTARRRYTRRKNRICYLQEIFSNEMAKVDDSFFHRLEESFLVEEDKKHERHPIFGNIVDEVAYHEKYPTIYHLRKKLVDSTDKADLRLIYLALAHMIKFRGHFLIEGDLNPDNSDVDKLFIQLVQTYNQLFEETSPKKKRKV
# B3: EF1a-ProCas9Flavi: ProCas9Flavi expressed from the strong full-length EF1a promoter, stably integrated lentiviral vector (protein)
# chain: B2 chain
# Legend:
# [1] = test system: GFP or RFP expression in E. coli MG1655; assay: E. coli CRISPRi GFP/RFP repression assay; type: cell-based
# Experimental: Assays were performed using methods like those described by Oakes et al. (2016).
# Endpoint Assay: Cells were picked in biological triplicate into 96 well plates containing 500 μL EZ MOPS plus Carb and CM. Plates were grown in 37° C. shakers for twelve hours. Next, cells were diluted 1:1000 in 500 μL EZ MOPS plus Carb, CM, IPTG and aTc. Two hundred nM aTc was used to induce Cas9-CPs or ProCas9s and 50 μM IPTG levels was used to induce the proteases in a 2 mL deep well blocks and shaken at 750 rpm at 37° C. After an eight-twelve-hour induction and growth period, 20 μL of cells were added to 80 μL of water and put into a 96-well microplate reader (Tecan M1000) at 37° C. and read immediately. Each well was measured for optical density at 600 nm and GFP or RFP fluorescence. GFP expression was normalized by dividing it with OD600. In the case of the time course assays, 150 μL of the 1:1000 dilution was used and placed into a black walled clear bottom plate (3631-Corning) and directly into the Tecan M1000 for a 130× 600 s kinetic cycle of reading. For E. coli single cell analysis, cells from the endpoint time course were run on a Sony SH800 to capture 100,000 events per sample.
# [2] = test system: GFP reporter in HEK-RT1 cells; assay: rapid mammalian genome editing reporter assay (HEK-RT1, GFP disruption); type: cell-based, human
# Excerpt: To establish a rapid and quantitative way to reliably assess genome editing efficiency from various CRISPR-Cas constructs in mammalian cells, a fluorescence-based reporter assay was built. […] To quantify this effect, HEK293T cells were stably transduced with a retroviral vector (LMP-Pten.1524) constitutively expressing GFP (Fellmann et al., 2013), and established monoclonal derivatives.
# Specifically, inducible monoclonal HEK293T-based genome editing reporter cells, referred to as “HEK-RT1,” were established in a two-step procedure. In the first step, puromycin resistant monoclonal HEK-RT3-4 reporter cells were generated (Park et al., 2018). In brief, HEK293T human embryonic kidney cells were transduced at low-copy with the amphotropic pseudotyped RT3GEPIR-Ren.713 retroviral vector (Fellmann et al., 2013), comprising an all-in-one Tet-On system enabling doxycycline-controlled GFP expression. After puromycin (2.0 μg/ml) selection of transduced HEK239 Ts, 36 clones were isolated and individually assessed for i) growth characteristics, ii) homogeneous morphology, iii) sharp fluorescence peaks of doxycycline (1 μg/ml) inducible GFP expression, iv) relatively low fluorescence intensity to favor clones with single-copy reporter integration, and v) high transfectability.
# Since HEK-RT3-4 are puromycin resistant, in the second step, monoclonal HEK-RT1 and analogous sister reporter cell lines were derived by transient transfection of HEK-RT3-4 cells with a pair of vectors encoding Cas9 and guide RNAs targeting puromycin (sgPuro5, sgPuro6), followed by identification of monoclonal derivatives that are puromycin sensitive. In total, eight clones were isolated and individually assessed for i) growth characteristics, ii) homogeneous morphology, iii) doxycycline (1 μg/ml) inducible and reversible GFP fluorescence, and v) puromycin and hygromycin B sensitivity. […] The HEK-RT1 cell line was chosen as rapid mammalian genome editing reporter system for all further assays.
# A guide RNA targeting the GFP fluorescence reporter (sgGFP9) was compared to a non-targeting control (sgNT). […] GFP expression in HEK-RT1 reporter cells was induced for 24-48 hour using doxycycline (1 μg/ml; Sigma-Aldrich), at the indicated days post-editing.
# [3] = target: T1, WNV protease (Kunjin virus, UniProt P14335); assay: immunoblot of ProCas9Flavi activation in HEK293T; type: cell-based, human; conditions: HEK293T co-transfected with WNV protease
# T1 construct: expressed in transfected cells; host or cells: HEK293T (293FT)
# T1 sequence (P14335 1506-2124): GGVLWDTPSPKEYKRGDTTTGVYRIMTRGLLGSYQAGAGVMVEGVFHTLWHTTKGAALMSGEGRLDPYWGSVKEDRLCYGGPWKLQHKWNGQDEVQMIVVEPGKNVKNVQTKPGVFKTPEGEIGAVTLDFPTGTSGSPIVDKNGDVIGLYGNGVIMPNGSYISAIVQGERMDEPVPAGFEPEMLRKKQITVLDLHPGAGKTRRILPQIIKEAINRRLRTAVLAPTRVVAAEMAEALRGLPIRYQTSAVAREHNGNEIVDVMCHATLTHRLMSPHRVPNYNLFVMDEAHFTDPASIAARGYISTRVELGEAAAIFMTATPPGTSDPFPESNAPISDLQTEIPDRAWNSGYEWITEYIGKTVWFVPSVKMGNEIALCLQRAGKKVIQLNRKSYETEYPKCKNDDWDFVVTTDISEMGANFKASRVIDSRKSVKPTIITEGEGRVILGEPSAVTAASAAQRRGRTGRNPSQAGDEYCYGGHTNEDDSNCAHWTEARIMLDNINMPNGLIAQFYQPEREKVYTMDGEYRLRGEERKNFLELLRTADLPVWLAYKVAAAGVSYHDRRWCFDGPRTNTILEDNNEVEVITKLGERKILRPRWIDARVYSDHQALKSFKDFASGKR
# T1 sequence (P14335 1375-1505): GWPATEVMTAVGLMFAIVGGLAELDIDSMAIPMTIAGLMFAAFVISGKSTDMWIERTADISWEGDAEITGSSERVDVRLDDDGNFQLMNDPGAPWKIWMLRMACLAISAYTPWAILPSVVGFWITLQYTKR
# Experimental: HEK293T (293FT; Thermo Fisher Scientific) were co-transfected with the indicated plasmids expressing Cas9-wt or ProCas9-Flavi and plasmids expressing dTEV or WNV protease. HEK293T cells were split to reach a confluency of 70%-90% at time of transfection. For transfections in 6-well plates, 1 μg Cas9-sgRNA vector and 0.75 μg protease vector (if applicable) were mixed in 0.4 mL Opti-MEM, followed by addition of 5.25 μg polyethylenimine (PEI; Polysciences #23966). After 20-30 min incubation at room temperature, the transfection reactions were dispersed over the HEK293T cells. Media was changed 12-hour post-transfection. At 36-hour post-transfection, HEK293T were washed in ice-cold PBS and scraped from the plates. Cell pellets were lysed in Laemmli buffer (62.5 mMTris-HCl pH 6.8, 10% glycerol, 2% SDS, 5% 2-mercaptoethanol). Equal amounts of protein were separated on 4%-20% Mini-PROTEAN TGX gels (Bio-Rad, #456-1095) and transferred to 0.2 μm PVDF membranes (Bio-Rad, #162-0177). Blots were blocked in 5% milk in TBST 0.1% (TBS+[…]) for 1 hour; all antibodies were incubated in 5% milk in TBST 0.1% at 4° C. overnight; blots were washed in TBST 0.1%. The abundance of b-actin (ACTB) was monitored to ensure equal loading. […]
# [4] = test system: PCSK9 locus; assay: editing at the endogenous PCSK9 locus (T7E1 assay, TIDE); type: cell-based, human; conditions: guide sgPCSK9-4, WNV protease vs dTEV; A549 and HAP1
# Experimental: Unless otherwise noted, error bars indicate the standard deviation of triplicates, and significance was assessed by comparing samples to their respective controls using unpaired, two-tailed t tests (alpha=0.05). Genome editing quantification using TIDE was carried out as recommended (Brinkman et al., 2014). In brief, indels ranging from −10 to +10 nucleotides were quantified. Parental cells were used as reference for normalization. When reporting TIDE editing efficiencies, only indels with p values <0.01 in at least one replicate were considered true.
molecule,measurement,setting,value
B1,GFP repression activity with TEV protease,"[1]; 7-amino acid TEV cleavage site (ENLYFQ/S) as linker, active TEV vs dTEV",switched from completely off to fully on
B2,ProCas9 activation by co-expressed viral proteases,[1]; Cas9-CP199 with protease cleavage site as CP linker,activated by NS2B-NS3 proteases from both Zika and WNV
same,GFP disruption,"[2]; transient transfection, with active or deactivated proteases",GFP disruption only in the presence of the active proteases
same,activation (cleavage into two subunits) by immunoblot,[3],vast majority of vigilant ProCas9Flavi was activated and observed as two distinct subunits
B3,genome editing,"[2]; stable expression of WNV protease, out to 8 days",about 35%
same,genome editing efficiency after transient protease transfection,"[2]; stably integrated ProCas9, ZIKV, WNV proteases, mTagBFP2-positive cells",highest genome editing efficiency
same,genome editing,[2]; stably transduced WNV protease (FIG. 4F),over 25%
same,protease-sensitive editing at the PCSK9 locus (T7E1),[4],clear genome editing in the presence of WNV protease

# From patent publication US20230043813A1, “METHODS FOR TARGETED CELL DEPLETION” (The Regents of the University of California, priority 2019, published 2023)
